Test results reported in patent publication US20180127480A1.

Experiments:
[1] = target: biotinylated human SIRPα allele 2 domain 1 (a2d1) (human) (UniProt P78324); assay: SPR, Biacore T100, biotinylated SIRPα on SA chip, 25 C, 1:1 Langmuir model
[2] = target: biotinylated human SIRPα allele 1 domain 1 (a1d1) (human) (UniProt P78324); assay: as above
biotinylated human SIRPα allele 1 domain 1 (a1d1) (human), sequence (P78324 other isoform, or with tags, fused parts or gaps): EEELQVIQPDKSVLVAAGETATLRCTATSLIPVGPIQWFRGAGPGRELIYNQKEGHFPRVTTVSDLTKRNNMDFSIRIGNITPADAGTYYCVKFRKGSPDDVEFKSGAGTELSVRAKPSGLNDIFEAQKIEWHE

biotinylated human SIRPα allele 2 domain 1 (a2d1) (human), sequence (P78324 other isoform, or with tags, fused parts or gaps): as above

B1: high affinity CD47 variant N363 C15G (designed binder)
chain: WQLPLLFNKTKSVEFTFGNDTVVIPCFVTNMEAQNTTEVYVKWKFKGRDIYTFDGDKNKSTVPTDFSSAKIEVSQLLKGDASLKMDKSDAVSHTGNYTCEVTELTREGETIIELKYRVVSHHHHHHHH
**Q.** Which Kd [1] does the source give for B1 here?
**A.** Its Kd is 1100 pM.

**Q.** And the Kd [2]?
**A.** The Kd was 296 pM.
